One experiment concerns the target Stingin-2. The experiment is described as follows: SPR.
The next experiment deals with Stingin-1. The experiment can be described thus: SPR. Background: SPR reads the build-up and loss of mass on a sensor chip optically.
In a further experiment the target is Stingin-4. The experiment can be described thus: SPR competition.

B1: MDM2 25-109 (protein)
chain: ETLVRPKPLLLKLLKSVGAQKDTYTMKEVLFYLGQYIMTKRLYDEKQQHIVYCSNDLLGDLFGVPSFSVKEHRKIYTMIYRNLVV
On to B1, for which the figures for the Kd in the experiment with Stingin-2 and with Stingin-1 were 35.2 nM and 25.1 nM, respectively.

B2: MDMX 24-108 (protein)
chain: INQVRPKLPLLKILHAAGAQGEMFTVKEVMHYLGQYIMVKQLYDQQEQHMVYCGGDLLGELLGRQSFSVKDPSPLYDMLRKNLVT
As to B2, the Kd with Stingin-2 turned out to be 18 nM; with Stingin-1, 11.4 nM; in the experiment with Stingin-4, 252 nM.

Usually Kd stands for the concentration at which binding is half-saturated. A higher Kd goes with weaker binding.
